Results on 4 molecules are retold here after article PMC10018365, “Cryo-EM structure of the fully assembled Elongator complex” (Nucleic Acids Research, 2023).

Sequences and labels used below:
B1: Saccharomyces cerevisiae Elp456 subcomplex (hetero-hexameric ring) (complex)
chain 1: MSFRKRGEILNDRGSGLRGPLLRGPPRTSSTPLRTGNRRAPGNVPLSDTTARLKKLNIADESKTKMGLDSSHVGVRPSPATSQPTTSTGSADLDSILGHMGLPLGNSVLVEEQSTTEFHSILGKLFAAQGIVHNRISDSSADKTRNGDTHVIVLSLNQMFAKELPGIYKGSRKQMKKNLISEEESKVTVQNLNETQRSTPSRYKDLKIAWKYKLADEKRLGSPDRDDIQQNSEYKDYNHQFDITTRLMPAPIASELTFIAPTQPVSTILSQIEQTIKRNDKKLIRIVIPSLLHPAMYPPKMFESSEIIGLMHGVRSLVKKYYERVVLFASISIDIITPPLLVLLRNMFDSVINLEPFNQEMTEFLERVYKSQPGKIQHGLVHILKLPVFTDRGEMRVLKSEWAFKNGRKKFEIEQWGIPVDDAEGSAASEQSHSHSHSDEISHNIPAKKTKISLDY
chain 2: MASSSHNPVILLKRILSLTESSPFILCLDSIAQTSYKLIQEFVHQSKSKGNEYPIVYISFETVNKPSYCTQFIDATQMDFVHLVKQIISYLPAATATQAKKHMVIIDSLNYISTEYITRFLSEIASPHCTMVATYHKDIKDENRTVIPDWNNNYPDKLTLLQFMATTIVDIDVVLTGTLDTEEVSELLNEFRIPRGLNNDIFQLRLVNKRKSGRSLEYDFIVNSNTHEYELLSTTKQEEESSSNGLETPEMLQGLTTFNLGTSNKQKLAKDQVALPFLEAQSFGQGGAIVYEYEKDDDYDEEDPYEDPF
chain 3: MGSVQRQDLVLFSDQSVLPAHFFQDSNSHNLFFITHQSCTQPLWMINALVETHVLGSPSSLNESSSSMLPSSTRSHAVLASFIHEQNYFTNSLNKLKIPSNNYNVLDFLSDFIVNNIHNKPRDKILSDVLAKFSAAIQNNPTDTIVIIEQPELLLSLVSGLTCSELNNKFITPLLRQCKVLIIVSNSDIFNIDEYDASVHSSNLQNFYKSSFIKSMINLNLNPLKTGFAKDVTGSLHVCRGGAPIATSNTSLHVVENEYLYLNEKESTKLFYR
notes: Elp4, S. cerevisiae, full-length ORF; Elp5, S. cerevisiae, full-length ORF; Elp6, S. cerevisiae, full-length ORF; Symmetric dimer of trimers; also called ScElp456; yeast Elp456; source: S. cerevisiae DS1-2b, overexpressed, purified with ScElongator (IgG Sepharose with TEV elution, StrepTrap, Superose 6); free rings seen in one data set; not shown: protein A (Staphylococcus aureus), C-terminal, …
B2: Saccharomyces cerevisiae Elp4 (natural protein, UniProt Q02884 1-456, looked up)
chain: B1 chain 1
notes: Elp4, S. cerevisiae, full-length ORF; also called ScElp4; source: S. cerevisiae DS1-2b, overexpressed, purified within ScElongator
B3: Saccharomyces cerevisiae Elp5 (natural protein, UniProt P38874 1-309, looked up)
chain: B1 chain 2
notes: Elp5, S. cerevisiae, full-length ORF; also called ScElp5; source: S. cerevisiae DS1-2b, overexpressed, purified within ScElongator
B4: Saccharomyces cerevisiae Elp6 (natural protein, UniProt Q04868 1-273, looked up)
chain: B1 chain 3
notes: Elp6, S. cerevisiae, full-length ORF; also called ScElp6; source: S. cerevisiae DS1-2b, overexpressed, purified within ScElongator; not shown: protein A (Staphylococcus aureus), C-terminal, cleaved

What all share (details): both partners purified
Assay [1] has as its target T1, Saccharomyces cerevisiae Elp123 subcomplex (Saccharomyces cerevisiae, UniProt Q06706 1-1349; P42935 1-788; Q02908 1-557).
T1 construct: Elp1, S. cerevisiae, full-length ORF; Elp2, S. cerevisiae, full-length ORF; Elp3, S. cerevisiae, full-length ORF; also called ScElp123; yeast Elp123; not shown: Twin-Strep-tag, C-terminal, kept; copies: 2 + 2 + 2
The assay can be described thus: cryo-EM structure; ScElongator purified from overexpressing yeast, native sample (4.35 Å) and BS3-stabilised sample (6.6 Å; two-lobed map 17.2 Å); sample buffer 20 mM HEPES pH 7.5, 100 mM NaCl, 3 mM DTT.

The target in assay [2] is T2, Saccharomyces cerevisiae Elp1 (Saccharomyces cerevisiae, UniProt Q06706 1-1349).
T2 construct: Elp1, S. cerevisiae, full-length ORF; also called ScElp1; source: S. cerevisiae DS1-2b, overexpressed, purified within ScElongator
T2 sequence (looked up): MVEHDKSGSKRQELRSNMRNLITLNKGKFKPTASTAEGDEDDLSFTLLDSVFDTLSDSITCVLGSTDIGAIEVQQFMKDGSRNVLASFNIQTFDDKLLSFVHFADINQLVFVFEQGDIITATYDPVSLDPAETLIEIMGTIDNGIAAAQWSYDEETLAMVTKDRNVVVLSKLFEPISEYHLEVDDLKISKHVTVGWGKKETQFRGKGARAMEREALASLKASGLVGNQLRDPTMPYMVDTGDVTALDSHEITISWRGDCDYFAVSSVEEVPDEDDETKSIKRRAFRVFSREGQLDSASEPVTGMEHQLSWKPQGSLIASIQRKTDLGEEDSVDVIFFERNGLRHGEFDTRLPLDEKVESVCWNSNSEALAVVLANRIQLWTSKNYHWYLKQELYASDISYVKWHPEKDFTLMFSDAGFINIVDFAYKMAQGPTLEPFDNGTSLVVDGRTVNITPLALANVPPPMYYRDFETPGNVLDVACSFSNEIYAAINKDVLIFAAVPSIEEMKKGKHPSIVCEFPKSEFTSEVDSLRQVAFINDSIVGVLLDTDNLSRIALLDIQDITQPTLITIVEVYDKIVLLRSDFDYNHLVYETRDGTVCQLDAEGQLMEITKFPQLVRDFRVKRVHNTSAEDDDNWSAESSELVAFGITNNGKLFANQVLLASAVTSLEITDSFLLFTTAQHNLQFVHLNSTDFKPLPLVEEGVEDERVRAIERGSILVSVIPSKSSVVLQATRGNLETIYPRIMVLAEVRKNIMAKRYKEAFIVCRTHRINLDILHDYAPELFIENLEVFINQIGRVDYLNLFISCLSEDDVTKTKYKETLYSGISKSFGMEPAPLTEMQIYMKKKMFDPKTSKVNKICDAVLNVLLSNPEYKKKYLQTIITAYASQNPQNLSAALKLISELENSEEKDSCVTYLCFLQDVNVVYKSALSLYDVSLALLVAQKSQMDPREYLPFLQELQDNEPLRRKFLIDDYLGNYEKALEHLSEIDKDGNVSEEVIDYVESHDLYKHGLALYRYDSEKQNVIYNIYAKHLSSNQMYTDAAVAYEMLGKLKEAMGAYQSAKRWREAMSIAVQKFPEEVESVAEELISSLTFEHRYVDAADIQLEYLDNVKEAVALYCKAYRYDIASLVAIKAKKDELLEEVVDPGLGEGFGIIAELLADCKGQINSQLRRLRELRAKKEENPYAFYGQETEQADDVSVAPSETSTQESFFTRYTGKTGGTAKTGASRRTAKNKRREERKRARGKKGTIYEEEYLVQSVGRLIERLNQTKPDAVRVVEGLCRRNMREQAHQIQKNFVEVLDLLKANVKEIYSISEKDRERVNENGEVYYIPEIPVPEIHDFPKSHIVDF
Described as above.

Assay [3] has as its target T3, Saccharomyces cerevisiae Elp3 (Saccharomyces cerevisiae, UniProt Q02908 1-557).
T3 construct: Elp3, S. cerevisiae, full-length ORF; also called ScElp3; source: S. cerevisiae DS1-2b, overexpressed, purified within ScElongator; not shown: Twin-Strep-tag, C-terminal, kept
T3 sequence (looked up): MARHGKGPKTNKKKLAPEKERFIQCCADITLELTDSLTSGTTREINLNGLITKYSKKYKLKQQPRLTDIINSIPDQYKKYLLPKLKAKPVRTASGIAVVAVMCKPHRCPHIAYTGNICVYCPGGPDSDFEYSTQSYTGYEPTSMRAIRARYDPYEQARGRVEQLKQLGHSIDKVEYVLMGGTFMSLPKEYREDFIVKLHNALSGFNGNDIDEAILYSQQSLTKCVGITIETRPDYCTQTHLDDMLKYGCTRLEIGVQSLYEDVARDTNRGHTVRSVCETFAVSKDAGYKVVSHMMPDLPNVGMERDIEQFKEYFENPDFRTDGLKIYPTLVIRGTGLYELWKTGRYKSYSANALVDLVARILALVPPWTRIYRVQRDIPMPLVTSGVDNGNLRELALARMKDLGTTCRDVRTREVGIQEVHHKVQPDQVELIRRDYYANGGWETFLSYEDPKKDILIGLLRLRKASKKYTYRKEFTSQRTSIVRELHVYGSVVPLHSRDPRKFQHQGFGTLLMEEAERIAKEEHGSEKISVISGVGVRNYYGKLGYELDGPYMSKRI
Described as above.

Assay [4] deals with B2. Put plainly: cryo-EM structure; free full-length ScElp456 rings found in one data set, 3.7 Å.
The target of assay [5] is B3. The assay is described as above.

T1 sequence (P42935 whole entry, one chain of several): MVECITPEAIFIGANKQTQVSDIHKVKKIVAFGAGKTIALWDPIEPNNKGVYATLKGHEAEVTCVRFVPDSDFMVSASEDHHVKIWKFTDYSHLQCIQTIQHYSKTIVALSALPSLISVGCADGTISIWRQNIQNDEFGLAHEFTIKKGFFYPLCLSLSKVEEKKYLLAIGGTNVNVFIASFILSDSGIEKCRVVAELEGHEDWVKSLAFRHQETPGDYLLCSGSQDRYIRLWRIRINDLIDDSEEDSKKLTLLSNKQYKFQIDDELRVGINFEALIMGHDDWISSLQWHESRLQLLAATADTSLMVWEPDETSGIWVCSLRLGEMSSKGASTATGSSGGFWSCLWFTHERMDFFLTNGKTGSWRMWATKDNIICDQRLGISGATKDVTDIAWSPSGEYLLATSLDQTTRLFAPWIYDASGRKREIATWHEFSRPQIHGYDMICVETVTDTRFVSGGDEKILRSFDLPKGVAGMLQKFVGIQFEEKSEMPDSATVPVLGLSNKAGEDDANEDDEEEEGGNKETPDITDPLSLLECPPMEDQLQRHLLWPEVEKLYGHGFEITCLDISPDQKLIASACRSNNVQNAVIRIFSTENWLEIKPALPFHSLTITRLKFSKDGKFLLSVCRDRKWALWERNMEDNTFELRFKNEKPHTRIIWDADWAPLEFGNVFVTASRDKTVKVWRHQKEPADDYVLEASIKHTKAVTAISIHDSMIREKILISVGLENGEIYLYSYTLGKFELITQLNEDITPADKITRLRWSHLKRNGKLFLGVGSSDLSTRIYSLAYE

For B1, the binding result in assay [1] is on record as “binds”.
On to B2, for which the binding result in assay [2] and in assay [3] was “binds” each time.
For the molecule B3, the binding result in assay [2] and in assay [4] was “binds” each time.
As to B4, the binding result in assay [3], in assay [5] and in assay [4] was “binds” throughout.
